Measurements as given in patent US20220033501A1.
Where “and” joins values, the source holds several entries; their conditions need not be identical. Equal values may be shown once. Each block holds one substance with its values, some of them ahead of it.

Assays:
[1] = molecular target: human TIM-3, full length, on cells (human) (UniProt Q8TDQ0); experiment: FACS, CHOK1-hTIM-3 cells; antibody 8 nM
[2] = molecular target: human TIM-3, full length, on cells (human) (UniProt Q8TDQ0); experiment: FACS, CHOK1-hTIM-3 cells; antibody 40 nM
[3] = molecular target: human TIM-3, full length, on cells (human) (UniProt Q8TDQ0); experiment: FACS, CHOK1-hTIM-3 cells; antibody 1.6 nM
[4] = molecular target: human TIM-3, full length, on cells (human) (UniProt Q8TDQ0); experiment: FACS, CHOK1-hTIM-3 cells; antibody 200 nM
[5] = molecular target: human TIM-3, full length, on cells (human) (UniProt Q8TDQ0); experiment: FACS, CHOK1-hTIM-3 cells; antibody 0.32 nM
[6] = molecular target: human TIM-3, full length, on cells (human) (UniProt Q8TDQ0); experiment: FACS, CHOK1-hTIM-3 cells; antibody 0.013 nM
[7] = molecular target: human TIM-3, full length, on cells (human) (UniProt Q8TDQ0); experiment: FACS, CHOK1-hTIM-3 cells; antibody 0.064 nM
[8] = molecular target: human TIM-3 protein with hFc tag (hTIM-3-hFc protein) (human) (UniProt Q8TDQ0); experiment: ELISA, coated hTIM-3-hFc; antibody 0.0001 nM
[9] = molecular target: human TIM-3 protein with hFc tag (hTIM-3-hFc protein) (human) (UniProt Q8TDQ0); experiment: ELISA, coated hTIM-3-hFc; antibody 0.0007 nM
[10] = molecular target: human TIM-3 protein with hFc tag (hTIM-3-hFc protein) (human) (UniProt Q8TDQ0); experiment: ELISA, coated hTIM-3-hFc; antibody 0.0067 nM
[11] = molecular target: human TIM-3 protein with hFc tag (hTIM-3-hFc protein) (human) (UniProt Q8TDQ0); experiment: ELISA, coated hTIM-3-hFc; antibody 0.0667 nM
[12] = molecular target: human TIM-3 protein with hFc tag (hTIM-3-hFc protein) (human) (UniProt Q8TDQ0); experiment: ELISA, coated hTIM-3-hFc; antibody 0.6667 nM
[13] = molecular target: human TIM-3 protein with hFc tag (hTIM-3-hFc protein) (human) (UniProt Q8TDQ0); experiment: ELISA, coated hTIM-3-hFc; antibody 6.6667 nM
[14] = molecular target: human TIM-3 protein with hFc tag (hTIM-3-hFc protein) (human) (UniProt Q8TDQ0); experiment: ELISA, coated hTIM-3-hFc; antibody 66.667 nM
[15] = molecular target: monkey TIM-3 protein with hFc tag (cTIM-3-hFc protein) (monkey; human); experiment: ELISA, coated cTIM-3-hFc; antibody 0.0001 nM
[16] = molecular target: monkey TIM-3 protein with hFc tag (cTIM-3-hFc protein) (monkey; human); experiment: ELISA, coated cTIM-3-hFc; antibody 0.0007 nM
[17] = molecular target: monkey TIM-3 protein with hFc tag (cTIM-3-hFc protein) (monkey; human); experiment: ELISA, coated cTIM-3-hFc; antibody 0.0067 nM
[18] = molecular target: monkey TIM-3 protein with hFc tag (cTIM-3-hFc protein) (monkey; human); experiment: ELISA, coated cTIM-3-hFc; antibody 0.0667 nM
[19] = molecular target: monkey TIM-3 protein with hFc tag (cTIM-3-hFc protein) (monkey; human); experiment: ELISA, coated cTIM-3-hFc; antibody 0.6667 nM
[20] = molecular target: monkey TIM-3 protein with hFc tag (cTIM-3-hFc protein) (monkey; human); experiment: ELISA, coated cTIM-3-hFc; antibody 6.6667 nM
[21] = molecular target: monkey TIM-3 protein with hFc tag (cTIM-3-hFc protein) (monkey; human); experiment: ELISA, coated cTIM-3-hFc; antibody 66.667 nM
[22] = molecular target: murine TIM-3 protein with hFc tag (mTIM-3-hFc protein) (mouse; human) (UniProt Q8VIM0); experiment: ELISA, coated mTIM-3-hFc; antibody 0.0001 nM
[23] = molecular target: murine TIM-3 protein with hFc tag (mTIM-3-hFc protein) (mouse; human) (UniProt Q8VIM0); experiment: ELISA, coated mTIM-3-hFc; antibody 0.0007 nM
[24] = molecular target: murine TIM-3 protein with hFc tag (mTIM-3-hFc protein) (mouse; human) (UniProt Q8VIM0); experiment: ELISA, coated mTIM-3-hFc; antibody 0.0067 nM
[25] = molecular target: murine TIM-3 protein with hFc tag (mTIM-3-hFc protein) (mouse; human) (UniProt Q8VIM0); experiment: ELISA, coated mTIM-3-hFc; antibody 0.0667 nM
[26] = molecular target: murine TIM-3 protein with hFc tag (mTIM-3-hFc protein) (mouse; human) (UniProt Q8VIM0); experiment: ELISA, coated mTIM-3-hFc; antibody 0.6667 nM
[27] = molecular target: murine TIM-3 protein with hFc tag (mTIM-3-hFc protein) (mouse; human) (UniProt Q8VIM0); experiment: ELISA, coated mTIM-3-hFc; antibody 6.6667 nM
[28] = molecular target: murine TIM-3 protein with hFc tag (mTIM-3-hFc protein) (mouse; human) (UniProt Q8VIM0); experiment: ELISA, coated mTIM-3-hFc; antibody 66.667 nM
[29] = molecular target: human TIM-3 protein with hFc tag (hTIM-3-hFc protein) (human) (UniProt Q8TDQ0); experiment: ELISA, coated hTIM-3-hFc; antibody 0 nM (blank)
[30] = molecular target: monkey TIM-3 protein with hFc tag (cTIM-3-hFc protein) (monkey; human); experiment: ELISA, coated cTIM-3-hFc; antibody 0 nM (blank)
[31] = molecular target: murine TIM-3 protein with hFc tag (mTIM-3-hFc protein) (mouse; human) (UniProt Q8VIM0); experiment: ELISA, coated mTIM-3-hFc; antibody 0 nM (blank)
[32] = molecular target: human TIM-3, full length, on cells (human) (UniProt Q8TDQ0); experiment: FACS, CHOK1-hTIM-3 cells; antibody 0 nM (blank)
[33] = molecular target: human TIM-3 protein with hFc tag (hTIM-3-hFc protein) (human) (UniProt Q8TDQ0); experiment: ELISA, hTIM-3-hFc coated at 1 ug/ml; antibody 0.11 nM
[34] = molecular target: human TIM-3 protein with hFc tag (hTIM-3-hFc protein) (human) (UniProt Q8TDQ0); experiment: ELISA, hTIM-3-hFc coated at 1 ug/ml; antibody 0.53 nM
[35] = molecular target: human TIM-3 protein with hFc tag (hTIM-3-hFc protein) (human) (UniProt Q8TDQ0); experiment: ELISA, hTIM-3-hFc coated at 1 ug/ml; antibody 2.67 nM
[36] = molecular target: human TIM-3 protein with hFc tag (hTIM-3-hFc protein) (human) (UniProt Q8TDQ0); experiment: ELISA, hTIM-3-hFc coated at 1 ug/ml; antibody 66.7 nM
[37] = molecular target: human TIM-3 protein with hFc tag (hTIM-3-hFc protein) (human) (UniProt Q8TDQ0); experiment: ELISA, hTIM-3-hFc coated at 1 ug/ml; antibody 0.021 nM
[38] = molecular target: human TIM-3 protein with hFc tag (hTIM-3-hFc protein) (human) (UniProt Q8TDQ0); experiment: ELISA, hTIM-3-hFc coated at 1 ug/ml; antibody 13.34 nM
[39] = molecular target: human TIM-3 protein with hFc tag (hTIM-3-hFc protein) (human) (UniProt Q8TDQ0); experiment: ELISA, hTIM-3-hFc coated at 1 ug/ml; antibody 0.0043 nM
[40] = molecular target: human TIM-3 protein with hFc tag (hTIM-3-hFc protein) (human) (UniProt Q8TDQ0); experiment: ELISA, hTIM-3-hFc coated at 1 ug/ml; antibody 0 nM (blank)
[41] = molecular target: TIM-3 protein on human peripheral blood mononuclear lymphocytes (PBMC) (human) (UniProt Q8TDQ0); experiment: cell-based or functional assay
[42] = molecular target: monkey TIM-3 on CHOK1 stable cell line (CHOK1-cTIM-3) (monkey); experiment: FACS, CHOK1-cTIM-3 cells, 0 nM antibody
[43] = molecular target: monkey TIM-3 on CHOK1 stable cell line (CHOK1-cTIM-3) (monkey); experiment: FACS, CHOK1-cTIM-3 cells, 8 nM antibody
[44] = molecular target: monkey TIM-3 on CHOK1 stable cell line (CHOK1-cTIM-3) (monkey); experiment: FACS, CHOK1-cTIM-3 cells, 40 nM antibody
[45] = molecular target: monkey TIM-3 on CHOK1 stable cell line (CHOK1-cTIM-3) (monkey); experiment: FACS, CHOK1-cTIM-3 cells, 1.6 nM antibody
[46] = molecular target: monkey TIM-3 on CHOK1 stable cell line (CHOK1-cTIM-3) (monkey); experiment: FACS, CHOK1-cTIM-3 cells, 200 nM antibody
[47] = molecular target: monkey TIM-3 on CHOK1 stable cell line (CHOK1-cTIM-3) (monkey); experiment: FACS, CHOK1-cTIM-3 cells, 0.32 nM antibody
[48] = molecular target: monkey TIM-3 on CHOK1 stable cell line (CHOK1-cTIM-3) (monkey); experiment: FACS, CHOK1-cTIM-3 cells, 0.013 nM antibody
[49] = molecular target: monkey TIM-3 on CHOK1 stable cell line (CHOK1-cTIM-3) (monkey); experiment: FACS, CHOK1-cTIM-3 cells, 0.064 nM antibody
[50] = molecular target: human TIM-3 protein on human PBMC (human) (UniProt Q8TDQ0); experiment: cell-based or functional assay
Chain of human TIM-3 protein on human PBMC (human) (Q8TDQ0 22-301 limits assumed): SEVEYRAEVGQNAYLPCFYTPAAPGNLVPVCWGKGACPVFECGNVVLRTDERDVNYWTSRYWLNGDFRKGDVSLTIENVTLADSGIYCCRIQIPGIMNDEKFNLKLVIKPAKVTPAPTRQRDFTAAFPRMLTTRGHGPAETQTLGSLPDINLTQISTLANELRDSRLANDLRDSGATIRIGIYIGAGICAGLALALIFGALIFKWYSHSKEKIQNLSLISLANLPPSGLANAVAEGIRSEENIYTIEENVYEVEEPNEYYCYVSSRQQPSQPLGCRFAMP

Chain of monkey TIM-3 protein with hFc tag (cTIM-3-hFc protein) (monkey; human) (chain, as listed by the source): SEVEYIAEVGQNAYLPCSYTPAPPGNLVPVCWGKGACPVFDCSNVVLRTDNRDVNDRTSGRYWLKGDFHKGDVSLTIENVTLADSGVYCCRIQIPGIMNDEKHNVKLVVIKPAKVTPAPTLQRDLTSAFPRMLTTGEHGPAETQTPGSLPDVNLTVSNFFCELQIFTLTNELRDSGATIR
Chain of human TIM-3 protein with hFc tag (hTIM-3-hFc protein) (human) (Q8TDQ0 22-200): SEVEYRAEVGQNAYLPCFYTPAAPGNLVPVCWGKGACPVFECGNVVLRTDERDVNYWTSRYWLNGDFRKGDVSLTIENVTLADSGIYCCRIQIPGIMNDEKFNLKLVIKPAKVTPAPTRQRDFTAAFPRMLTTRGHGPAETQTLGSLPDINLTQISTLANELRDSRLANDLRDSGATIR
Chain of human TIM-3, full length, on cells (human) (Q8TDQ0 22-301 limits assumed): as the sequence (Q8TDQ0 22-301 limits assumed) above
Chain of TIM-3 protein on human peripheral blood mononuclear lymphocytes (PBMC) (human) (Q8TDQ0 22-301 limits assumed): as above
Chain of monkey TIM-3 on CHOK1 stable cell line (CHOK1-cTIM-3) (monkey) (chain, as listed by the source limits assumed): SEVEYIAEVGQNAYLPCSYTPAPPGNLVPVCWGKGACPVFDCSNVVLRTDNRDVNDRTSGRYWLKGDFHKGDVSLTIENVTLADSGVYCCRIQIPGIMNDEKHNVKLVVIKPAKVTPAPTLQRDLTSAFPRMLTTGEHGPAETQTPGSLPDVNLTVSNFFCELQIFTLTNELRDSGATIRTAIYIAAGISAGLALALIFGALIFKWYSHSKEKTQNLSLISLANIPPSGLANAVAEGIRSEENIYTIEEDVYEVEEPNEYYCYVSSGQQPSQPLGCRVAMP
Chain of murine TIM-3 protein with hFc tag (mTIM-3-hFc protein) (mouse; human) (Q8VIM0 other isoform, or with tags, fused parts or gaps): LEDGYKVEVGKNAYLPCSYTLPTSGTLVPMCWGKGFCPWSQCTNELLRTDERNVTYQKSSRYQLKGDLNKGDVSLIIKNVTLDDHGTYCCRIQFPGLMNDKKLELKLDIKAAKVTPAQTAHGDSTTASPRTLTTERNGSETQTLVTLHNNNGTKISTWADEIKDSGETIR

- Mean fluorescence intensity [1]: 3.1
- Mean fluorescence intensity [2]: 3.3
- Mean fluorescence intensity [3]: 3
- Mean fluorescence intensity [4]: 3.8
- Mean fluorescence intensity [5]: 3
- Mean fluorescence intensity [6]: 3
- Mean fluorescence intensity [7]: 3
- OD450 [8]: 0.11
- OD450 [9]: 0.12
- OD450 [10]: 0.12
- OD450 [11]: 0.12
- OD450 [12]: 0.13
- OD450 [13]: 0.13
- OD450 [14]: 0.22
- OD450 [15]: 0.54
- OD450 [16]: 0.55
- OD450 [17]: 0.57
- OD450 [18]: 0.54
- OD450 [19]: 0.55
- OD450 [20]: 0.58
- OD450 [21]: 0.68
- OD450 [22]: 0.63
- OD450 [23]: 0.67
- OD450 [24]: 0.62
- OD450 [25]: 0.64
- OD450 [26]: 0.66
- OD450 [27]: 0.65
- OD450 [28]: 0.75
- OD450 [29]: 0.11
- OD450 [30]: 0.55
- OD450 [31]: 0.6
- Mean fluorescence intensity [32]: 3
- OD450 nm [33]: 0.6 and 0.59
- OD450 nm [34]: 0.63 and 0.65
- OD450 nm [35]: 0.69 and 0.58
- OD450 nm [36]: 0.72 and 0.7
- OD450 nm [37]: 0.55 and 0.58
- OD450 nm [38]: 0.63
- OD450 nm [39]: 0.63 and 0.59
- OD450 nm [40]: 0.61 and 0.59
Substance: rat IgG (negative control antibody)

- OD450 nm [33]: 3.23 and 3.27
- OD450 nm [34]: 3.52 and 3.38
- OD450 nm [35]: 3.42 and 3.32
- OD450 nm [36]: 3.48 and 3.44
- OD450 nm [37]: 1.78 and 1.75
- OD450 nm [38]: 3.45 and 3.42
- OD450 nm [39]: 0.92 and 0.86
- OD450 nm [40]: 0.6 and 0.59
Substance: commercially available anti-TIM-3 antibody (R&D system, MAB2365)

- IFN production; antibody 0.001 µg/ml (4th head as printed), N = 1 [41]: 738 pg/mL
- IFN production; antibody 0.001 µg/ml (4th head as printed), N = 2 [41]: 786 pg/mL
- IFN production; antibody 0.001 µg/ml (5th head as printed), N = 1 [41]: 727 pg/mL
- IFN production; antibody 0.001 µg/ml (5th head as printed), N = 2 [41]: 714 pg/mL
- IFN production; antibody 0.1 µg/ml, N = 1 [41]: 718 pg/mL
- IFN production; antibody 0.1 µg/ml, N = 2 [41]: 664 pg/mL
- IFN production; antibody 1 µg/ml, N = 1 [41]: 694 pg/mL
- IFN production; antibody 1 µg/ml, N = 2 [41]: 574 pg/mL
- IFN production; antibody 10 µg/ml, N = 1 [41]: 620 pg/mL
- IFN production; antibody 10 µg/ml, N = 2 [41]: 582 pg/mL
- Mean fluorescence intensity [42]: 3.2
- Mean fluorescence intensity [43]: 3.8
- Mean fluorescence intensity [44]: 3.7
- Mean fluorescence intensity [45]: 3.6
- Mean fluorescence intensity [46]: 4.8
- Mean fluorescence intensity [47]: 3.5
- Mean fluorescence intensity [48]: 3.3
- Mean fluorescence intensity [49]: 3.4
Substance: rat IgG control (antibody)

- IFN-γ production, lymphocyte activation assay (donor Y), negative control IgG 0.1 µg/ml, N = 1 [50]: 2100 pg/mL
- IFN-γ production, lymphocyte activation assay (donor Y), negative control IgG 0.1 µg/ml, N = 2 [50]: 2020 pg/mL
- IFN-γ production, lymphocyte activation assay (donor Y), negative control IgG 1 µg/ml, N = 1 [50]: 2190 pg/mL
- IFN-γ production, lymphocyte activation assay (donor Y), negative control IgG 1 µg/ml, N = 2 [50]: 1770 pg/mL
- IFN-γ production, lymphocyte activation assay (donor Y), negative control IgG 10 µg/ml, N = 1 [50]: 1930 pg/mL
- IFN-γ production, lymphocyte activation assay (donor Y), negative control IgG 10 µg/ml, N = 2 [50]: 1980 pg/mL
- IFN-γ production, lymphocyte activation assay (donor Y), negative control IgG, concentration head printed '0' (fifth), N = 1 [50]: 2000 pg/mL
- IFN-γ production, lymphocyte activation assay (donor Y), negative control IgG, concentration head printed '0' (fifth), N = 2 [50]: 2070 pg/mL
- IFN-γ production, lymphocyte activation assay (donor Y), negative control IgG, concentration head printed '0' (fourth), N = 1 [50]: 1990 pg/mL
- IFN-γ production, lymphocyte activation assay (donor Y), negative control IgG, concentration head printed '0' (fourth), N = 2 [50]: 2160 pg/mL
Substance: hIgG control (human IgG) (antibody)
